System: B16.F10 tumors
Test: Tumor growth of B16.F10 tumors subcutaneously implanted in mice
Assay type: in vivo
Settings: ISF35 combination therapy versus agonist CD40 antibody combination therapy; B16.F10 tumors subcutaneously implanted in C54/BL6 mice
Description: Tumor growth curves of B16.F10 tumors subcutaneously implanted in C54/BL6 mice. Individual animal tumor growth curves are shown.

B1: ISF35: chimeric CD154 polypeptide; domain IV of human CD154 linked to domains I, II and III of human CD154; SEQ ID NO 6 (protein)
chain: MIETYNQTSPRSAATGLPISMKIFMYLLTVFLITQMIGSALFAVYLHRRLDKIEDERNLHEDFVFMKTIQRCNTGERSLSLLNCEEIKSQFEGFVKDIMLNKEETKKDEDPQIAAHVVSEANSNAASVLQWAKKGYYTMKSNLVTLENGKQLTVKRQGLYYIYAQVTFCSNREASSQAPFIVGLWLKPSSGSERILLKAANTHSSSQLCEQQSIHLGGVFELQPGASVFVNVTDPSQVSHGTGFTSFGLLKL
modifications: ISF35 (MEM40)
  Tumor growth curves (activity of combination therapy): Superior activity

Reference: patent US12171803B2, “Methods of CD40 and toll like receptor immune activation” (MEMGEN, INC., priority 2017, dated 2024)
